The text below walks through data of article PMC7053999, “ParB spreading on DNA requires cytidine triphosphate in vitro” (eLife, 2020).

Substitutions are numbered along the chain they refer to. Numbers in names are those of the source.

In series [1] the target is T1, Caulobacter ParB (Caulobacter vibrioides, UniProt B8GW30, C297S).
T1 construct: full-length, C-terminal His6 (pET21b), E. coli Rosetta (DE3), dimer
The series is described as follows: BLI, ParB accumulation on closed […] bp parS DNA. It counts as biochemical. The settings on record: 1 mM CTP, 1 uM ParB, Mg2+, pH 8.0, 22 °C; legend prints C97S in one place.

Another series deals with T2, Zymomonas mobilis ParB (Zymomonas mobilis, UniProt F8ETX3).
T2 construct: N-terminal His6-MBP (TEV) tag kept, E. coli Rosetta (DE3); chromosomal ParB
T2 sequence (F8ETX3 1-311): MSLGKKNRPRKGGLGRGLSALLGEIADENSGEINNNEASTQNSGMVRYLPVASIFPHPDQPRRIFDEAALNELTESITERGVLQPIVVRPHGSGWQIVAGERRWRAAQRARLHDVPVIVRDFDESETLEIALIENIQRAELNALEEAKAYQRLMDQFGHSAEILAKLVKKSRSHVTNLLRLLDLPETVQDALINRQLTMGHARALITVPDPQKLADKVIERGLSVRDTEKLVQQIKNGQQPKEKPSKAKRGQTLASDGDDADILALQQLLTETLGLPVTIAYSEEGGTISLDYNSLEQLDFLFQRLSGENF
The series is described as follows: BLI, ParB accumulation on closed […] bp parS DNA. It counts as biochemical. To be noted: 0.01 mM CTP, 1 uM ParB, Mg2+, pH 8.0, 22 °C. For orientation: BLI is a label-free optical method that tracks binding on a fibre tip over time.

In series [2] the target is T3, Caulobacter ParB (Caulobacter vibrioides, UniProt B8GW30).
T3 construct: full-length, C-terminal His6 (pET21b), E. coli Rosetta (DE3), dimer
The series can be described thus: DRaCALA membrane-spotting with radiolabelled CTP. It counts as binding. The settings on record: 22 bp parS DNA needed, Mg2+, pH 8.0, room temperature; labelled compound.

In series [3] the target is T4, Xanthomonas campestris ParB (Xanthomonas campestris, UniProt Q8P466).
T4 construct: N-terminal His6-MBP (TEV) tag kept, E. coli Rosetta (DE3); chromosomal ParB
T4 sequence (Q8P466 1-309): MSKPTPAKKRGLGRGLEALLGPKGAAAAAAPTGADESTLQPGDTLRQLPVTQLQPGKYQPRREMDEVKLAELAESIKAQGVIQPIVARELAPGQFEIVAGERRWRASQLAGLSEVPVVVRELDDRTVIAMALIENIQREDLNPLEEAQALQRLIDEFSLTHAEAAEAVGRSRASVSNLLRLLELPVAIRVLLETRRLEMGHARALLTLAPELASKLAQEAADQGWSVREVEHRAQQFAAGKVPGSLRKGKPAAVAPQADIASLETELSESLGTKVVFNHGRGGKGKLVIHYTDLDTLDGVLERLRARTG
The series is described as follows: BLI, ParB accumulation on closed […] bp parS DNA. To be noted: 0.01 mM CTP, 1 uM ParB, Mg2+, pH 8.0, 22 °C. It counts as biochemical.

The target in series [4] is T5, Caulobacter ParB (Caulobacter vibrioides, UniProt B8GW30, Q35C/C297S).
T5 construct: full-length, C-terminal His6 (pET21b), E. coli Rosetta (DE3), dimer
T5 sequence (B8GW30 whole entry Q35C/C297S): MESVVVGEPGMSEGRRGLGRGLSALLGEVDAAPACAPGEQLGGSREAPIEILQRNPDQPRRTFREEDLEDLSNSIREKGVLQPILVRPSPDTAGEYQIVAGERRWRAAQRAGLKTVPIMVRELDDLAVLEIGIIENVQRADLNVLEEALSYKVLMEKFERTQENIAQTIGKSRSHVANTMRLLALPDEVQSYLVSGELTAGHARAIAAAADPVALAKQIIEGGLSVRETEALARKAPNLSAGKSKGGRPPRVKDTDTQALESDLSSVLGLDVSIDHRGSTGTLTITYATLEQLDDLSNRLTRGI
The series can be described thus: BMOE cross-linking of N-terminal domains, SDS-PAGE. The settings on record: 1 mM CTP, 10 uM ParB, no parS DNA, Mg2+, pH 7.4, room temperature. Type of series: binding.

Series [5] concerns the target T6, TetR (class B, from Tn10) (Escherichia coli, UniProt P04483).
T6 construct: C-terminal His6 (pET21b), E. coli Rosetta (DE3)
The series can be described thus: BLI, release of TetR roadblock from tetO DNA. Type of series: binding. To be noted: 3 uM ahTc, 1 uM TetR, 1 uM ParB, 1 mM CTP, 170 bp closed parS-tetO DNA, Mg2+, 22 °C.

Series [6] concerns the molecule itself. The series can be described thus: cross-linking; 10 µM ParB (Q35C C297S) ± 1 mM NTP (CTP, CTPγS or other NTPs) ± 0.5 µM 22 bp parS dsDNA in 10 mM Tris-HCl pH 7.4, 100 mM NaCl, 1 mM MgCl2, room temperature, 15 min or 1-30 min time course, then 1 mM BMOE; SDS-PAGE, InstantBlue stain.
Series [7] has as its target T7, Caulobacter ParB-His6 (WT) (Caulobacter crescentus, UniProt B8GW30 1-304).
T7 sequence: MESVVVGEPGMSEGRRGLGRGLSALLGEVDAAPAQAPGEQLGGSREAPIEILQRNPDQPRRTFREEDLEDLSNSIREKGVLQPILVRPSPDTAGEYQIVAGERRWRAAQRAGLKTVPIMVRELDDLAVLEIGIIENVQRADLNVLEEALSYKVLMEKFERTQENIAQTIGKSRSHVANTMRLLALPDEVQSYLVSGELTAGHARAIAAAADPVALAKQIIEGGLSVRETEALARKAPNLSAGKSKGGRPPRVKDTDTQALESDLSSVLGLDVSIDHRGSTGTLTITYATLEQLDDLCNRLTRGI
The series can be described thus: BLI; ParB-CTP prebound; dissociation in 1 mM CTP, Mg2+; BLI at 22 C: 100 mM Tris-HCl pH 8.0, 100 mM NaCl, 1 mM MgCl2, 0.005% Tween 20; 1 uM protein dimer. Pull-down: same buffer, room temperature, 5 min, 1 uM ParB, 1 mM NTP. The settings on record: protein: recombinant; tags: C-terminal His6; chain copies: 2; label: biotin at both 5' ends; blunt; both ends tethered (closed); polymerase may add 3' A.

Series [8] concerns the target T7, Caulobacter ParB-His6 (WT). The series can be described thus: BLI; 1 mM CTP, Mg2+; BLI at 22 C: 100 mM Tris-HCl pH 8.0, 100 mM NaCl, 1 mM MgCl2, 0.005% Tween 20; 1 uM protein dimer. Pull-down: same buffer, room temperature, 5 min, 1 uM ParB, 1 mM NTP. The settings on record: protein: recombinant; tags: C-terminal His6; chain copies: 2; label: biotin at both 5' ends; blunt; both ends tethered (closed); polymerase may add 3' A.

Series [9] has as its target T7, Caulobacter ParB-His6 (WT). The series can be described thus: BLI; 1 mM CTP, Mg2+ (no increase in response); BLI at 22 C: 100 mM Tris-HCl pH 8.0, 100 mM NaCl, 1 mM MgCl2, 0.005% Tween 20; 1 uM protein dimer. Pull-down: same buffer, room temperature, 5 min, 1 uM ParB, 1 mM NTP. To be noted: protein: recombinant; tags: C-terminal His6; chain copies: 2; label: biotin at both 5' ends; blunt; both ends tethered (closed); polymerase may add 3' A.

The target in series [10] is T8, TetR-His6 (class B, from Tn10) (Tn10, UniProt P04483 1-207). The series is described as follows: BLI; 0.125-2 uM TetR, no NTP; BLI at 22 C: 100 mM Tris-HCl pH 8.0, 100 mM NaCl, 1 mM MgCl2, 0.005% Tween 20; 1 uM protein dimer. Pull-down: same buffer, room temperature, 5 min, 1 uM ParB, 1 mM NTP. To be noted: protein: recombinant; tags: C-terminal His6; chain copies: 2; label: 5' biotin on strand 1; blunt.
T8 sequence (P04483 whole entry): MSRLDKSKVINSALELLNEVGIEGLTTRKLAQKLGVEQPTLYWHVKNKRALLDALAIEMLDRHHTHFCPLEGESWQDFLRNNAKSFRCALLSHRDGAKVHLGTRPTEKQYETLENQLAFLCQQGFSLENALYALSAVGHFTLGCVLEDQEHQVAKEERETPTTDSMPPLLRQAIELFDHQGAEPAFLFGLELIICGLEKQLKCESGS

Series [11] has as its target T7, Caulobacter ParB-His6 (WT). The series is described as follows: BLI; 1 mM CDP, Mg2+; BLI at 22 C: 100 mM Tris-HCl pH 8.0, 100 mM NaCl, 1 mM MgCl2, 0.005% Tween 20; 1 uM protein dimer. Pull-down: same buffer, room temperature, 5 min, 1 uM ParB, 1 mM NTP. The settings on record: protein: recombinant; tags: C-terminal His6; chain copies: 2; label: 5' biotin on strand 1; blunt.

Series [12] has as its target T7, Caulobacter ParB-His6 (WT). The series can be described thus: BLI; 1 mM CTP (enhanced); BLI at 22 C: 100 mM Tris-HCl pH 8.0, 100 mM NaCl, 1 mM MgCl2, 0.005% Tween 20; 1 uM protein dimer. Pull-down: same buffer, room temperature, 5 min, 1 uM ParB, 1 mM NTP. To be noted: protein: recombinant; tags: C-terminal His6; chain copies: 2; label: biotin at both 5' ends; blunt; both ends tethered (closed); polymerase may add 3' A.

For series [13], the target named is T8, TetR-His6 (class B, from Tn10). The series is described as follows: BLI; no NTP, Mg2+; BLI at 22 C: 100 mM Tris-HCl pH 8.0, 100 mM NaCl, 1 mM MgCl2, 0.005% Tween 20; 1 uM protein dimer. Pull-down: same buffer, room temperature, 5 min, 1 uM ParB, 1 mM NTP. To be noted: protein: recombinant; tags: C-terminal His6; chain copies: 2; label: 5' biotin on strand 1; blunt.

Series [14] addresses T7, Caulobacter ParB-His6 (WT). The series is described as follows: BLI; 0.125-2 uM ParB, no NTP; BLI at 22 C: 100 mM Tris-HCl pH 8.0, 100 mM NaCl, 1 mM MgCl2, 0.005% Tween 20; 1 uM protein dimer. Pull-down: same buffer, room temperature, 5 min, 1 uM ParB, 1 mM NTP. The settings on record: protein: recombinant; tags: C-terminal His6; chain copies: 2; label: 5' biotin on strand 1; blunt.

T1 sequence (B8GW30 whole entry C297S): as the sequence (B8GW30 whole entry Q35C/C297S) above, with C35Q counted along it
T6 sequence (P04483 whole entry): as the sequence (P04483 whole entry) above

Turning to `Nc1ccn([C@@H]2O[C@H](COP(=O)(O)OP(=O)(O)OP(=O)(O)O)[C@@H](O)[C@H]2O)c(=O)n1` [CTP], the “BLI, ParB accumulation on closed 169 bp parS DNA” value on Caulobacter ParB [1] was “Both ParB (C297S) and ParB (Q35C C297S) were competent at spreading”; on Zymomonas mobilis ParB it was “CTP facilitates the association of eight ParB orthologs with DNA”; in series [3], “CTP facilitates the association of eight ParB orthologs with DNA”. In addition, the “DRaCALA membrane-spotting with radiolabelled CTP” value at Caulobacter ParB [2] is listed as “Caulobacter ParB binds to radiolabeled CTP in the presence of parS DNA”. In addition, the “BMOE cross-linking of N-terminal domains, SDS-PAGE” value on Caulobacter ParB [4] is “cross-linking of ParB (Q35C C297S) was also enhanced by CTP and CTPγS”.
As for `Cc1c2c(c(O)c3c(O)cccc13)C(=O)[C@]1(O)C(=O)C(C(N)=O)=C(O)[C@@H](N(C)C)[C@@H]1C2` [Anhydrotetracycline], the “BLI, release of TetR roadblock from tetO DNA” value in series [5] is “addition of anhydrotetracycline (ahTc), a negative effector of TetR”.

B1: Caulobacter ParB-His6 (Q35C C297S) (natural protein, Caulobacter crescentus, UniProt P0CAV8 1-304, looked up)
chain: T7 sequence with Q35C, C297S
notes: ParB, chromosome partitioning protein of Caulobacter crescentus; the cross-link reports engagement of the N-terminal domains of two subunits; The lone native cysteine C297 was changed to serine and Q35C was engineered in the N-terminal domain; Cloning in pET21b may add linker residues before the His6 tag (surmised); also called ParB (Q35C C297S); ParB (C297S Q35C); not shown: His6, C-terminal, …
For B1, the binding result in series [6] is on record as “binds”.

B2: 169 bp parS closed DNA (dsDNA)
DNA 1: CGCCAGGGTTTTCCCAGTCACGACGTTGTAAAACGACGGCCAGTGAATTCGAGCTCGGTACCCGCAGGAGGACGTAGGGTAGGGGGATGTTTCACGTGAAACAGGGGATCCTCTAGAGTCGACCTGCAGGCATGCAAGCTTGGCGTAATCATGGTCATAGCTGTTTCCT
DNA 2: AGGAAACAGCTATGACCATGATTACGCCAAGCTTGCATGCCTGCAGGTCGACTCTAGAGGATCCCCTGTTTCACGTGAAACATCCCCCTACCCTACGTCCTCCTGCGGGTACCGAGCTCGAATTCACTGGCCGTCGTTTTACAACGTCGTGACTGGGAAAACCCTGGCG
Regarding B2, the binding signal is ~5 fold slower dissociation vs buffer without CTP in series [7] and ~12 fold BLI response vs no NTP in series [8].

B3: 169 bp scrambled parS closed DNA (dsDNA)
DNA 1: B2 DNA 1 with T88A, G89A, T92A, G96T, T97G, G98A, A99G, A100T, A101T, C102T
DNA 2: B2 DNA 2 with G68A, T69A, T70A, T71C, C72T, A73C, C74A, A78T, C81T, A82T
In the case of B3, in series [9], the binding result is recorded as “no binding”.

B4: 20 bp parS (dsDNA)
DNA 1: GGGATGTTTCACGTGAAACA
DNA 2: TGTTTCACGTGAAACATCCC
On to B4, for which the binding result is listed as “no binding” in series [10] and “binds” in series [11].

B5: 170 bp parS-tetO closed DNA (dsDNA)
DNA 1: CGCCAGGGTTTTCCCAGTCACGACGTTGTAAAACGACGGCCAGAATTCGCAACGTGTGTTTCACGTGAAACAGCCTTGAACTGATAACGACTCTATCATTGATAGAGTGTTCTCTCCACGGGATCCCCAGGCATGCAAGCTTGGCGTAATCATGGTCATAGCTGTTTCCT
DNA 2: AGGAAACAGCTATGACCATGATTACGCCAAGCTTGCATGCCTGGGGATCCCGTGGAGAGAACACTCTATCAATGATAGAGTCGTTATCAGTTCAAGGCTGTTTCACGTGAAACACACGTTGCGAATTCTGGCCGTCGTTTTACAACGTCGTGACTGGGAAAACCCTGGCG
For the molecule B5, the binding result in series [12] is reported as “binds”.

B6: 28 bp tetO (dsDNA)
DNA 1: GGGGACTCTATCATTGATAGAGTATGC
DNA 2: GCATACTCTATCAATGATAGAGTCCCC
With B6, the binding result in [13] is reported as “binds”; in [14], “no binding”.
